In series [1] the target is T1, 6×-Histidine (6×-His) fusion protein containing the C-terminal kinase domain of ATM, residues 2712-3056 (Homo sapiens (Human), UniProt Q13315 2712-3056).
T1 construct: also called ATM kinase domain; not shown: 6×-His tag from pET28
T1 sequence: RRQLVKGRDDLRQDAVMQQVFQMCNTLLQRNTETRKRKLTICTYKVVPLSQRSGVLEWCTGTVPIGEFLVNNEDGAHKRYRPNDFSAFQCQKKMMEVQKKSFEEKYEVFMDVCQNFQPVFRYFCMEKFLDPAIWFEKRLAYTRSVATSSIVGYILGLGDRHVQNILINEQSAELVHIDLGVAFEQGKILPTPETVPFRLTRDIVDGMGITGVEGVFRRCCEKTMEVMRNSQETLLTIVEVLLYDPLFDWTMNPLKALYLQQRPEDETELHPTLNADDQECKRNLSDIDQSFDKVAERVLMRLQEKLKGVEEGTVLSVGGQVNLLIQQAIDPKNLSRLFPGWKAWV
The series is described as follows: co-expression in E. coli; kinase domain remained insoluble. An excerpt:
A further aspect of the invention provides a method of producing soluble ATM kinase by contacting the kinase domain of ATM with a fragment of ATM kinase containing Ser¹⁹⁸¹. […] Although the kinase domain was insoluble in bacteria when co-transfected with GST alone or a GST fusion with the ATM target peptide p53 (residues 1-101), a significant percentage was stabilized and solubilized in the presence of the GST-ATM¹⁹⁶¹⁻²⁰⁴⁶ fusion protein. The kinase domain was also solubilized in the presence of the GST-ATM¹⁹⁶¹⁻²⁰⁴⁶ fusion protein containing Ser¹⁹⁸¹→Ala, but remained insoluble in the presence of phosphorylation-mimic fusion peptides, Ser¹⁹⁸¹→Asp and Ser¹⁹⁸¹→Glu. Furthermore, the soluble kinase domain co-purified on glutathione-agarose with the GST-ATM¹⁹⁶¹⁻²⁰⁴⁶ fusion proteins containing wild-type sequence or Ser¹⁹⁸¹→Ala.

Series [2] concerns the molecule itself. The series is described as follows: SDS-PAGE of the purified fragment (self-association). As for the experimental part: As the ATM kinase domain interacts stably with the domain containing the autophosphorylation site, it was determined whether a truncated recombinant ATM molecule that included the phosphorylation and kinase domains would fold properly and have kinase activity. A galactose-inducible pYES plasmid containing 6×-His-FLAG®-tagged ATM¹⁹²³⁻³⁰⁵⁶ was transfected into Saccharomyces cerevisiae and a soluble ATM fragment was recovered. The polypeptide was purified by anti-FLAG® affinity chromatography.

B1: GST-ATM^1961-2046 phosphorylation-mimic fusion peptide Ser^1981→Asp (other)
chain: YADKKSMDDQEKRSLAFEEGDQSTTISSLSEKSKEETGISLQDLLLEIYRSIGEPDSLYGCGGGKMLQPITRLRTYEHEAMWGKAL
notes: not shown: glutathione-S-transferase (GST) as encoded by pGEX-4T-1
For the molecule B1, the binding result in series [1] is “no binding”.

B2: GST-ATM^1961-2046 phosphorylation-mimic fusion peptide Ser^1981→Glu (other)
chain: YADKKSMDDQEKRSLAFEEGEQSTTISSLSEKSKEETGISLQDLLLEIYRSIGEPDSLYGCGGGKMLQPITRLRTYEHEAMWGKAL
notes: as for B1
Consider B2, for which the binding result in series [1] is recorded as “no binding”.

B3: 6×-His-FLAG®-tagged ATM^1923-3056 (enzyme)
chain: SSGTIFNDAFWLDLNYLEVAKVAQSCAAHFTALLYAEIYADKKSMDDQEKRSLAFEEGSQSTTISSLSEKSKEETGISLQDLLLEIYRSIGEPDSLYGCGGGKMLQPITRLRTYEHEAMWGKALVTYDLETAIPSSTRQAGIIQALQNLGLCHILSVYLKGLDYENKDWCPELEELHYQAAWRNMQWDHCTSVSKEVEGTSYHESLYNALQSLRDREFSTFYESLKYARVKEVEEMCKRSLESVYSLYPTLSRLQAIGELESIGELFSRSVTHRQLSEVYIKWQKHSQLLKDSDFSFQEPIMALRTVILEILMEKEMDNSQRECIKDILTKHLVELSILARTFKNTQLPERAIFQIKQYNSVSCGVSEWQLEEAQVFWAKKEQSLALSILKQMIKKLDASCAANNPSLKLTYTECLRVCGNWLAETCLENPAVIMQTYLEKAVEVAGNYDGESSDELRNGKMKAFLSLARFSDTQYQRIENYMKSSEFENKQALLKRAKEEVGLLREHKIQTNRYTVKVQRELELDELALRALKEDRKRFLCKAVENYINCLLSGEEHDMWVFRLCSLWLENSGVSEVNGMMKRDGMKIPTYKFLPLMYQLAARMGTKMMGGLGFHEVLNNLISRISMDHPHHTLFIILALANANRDEFLTKPEVARRSRITKNVPKQSSQLDEDRTEAANRIICTIRSRRPQMVRSVEALCDAYIILANLDATQWKTQRKGINIPADQPITKLKNLEDVVVPTMEIKVDHTGEYGNLVTIQSFKAEFRLAGGVNLPKIIDCVGSDGKERRQLVKGRDDLRQDAVMQQVFQMCNTLLQRNTETRKRKLTICTYKVVPLSQRSGVLEWCTGTVPIGEFLVNNEDGAHKRYRPNDFSAFQCQKKMMEVQKKSFEEKYEVFMDVCQNFQPVFRYFCMEKFLDPAIWFEKRLAYTRSVATSSIVGYILGLGDRHVQNILINEQSAELVHIDLGVAFEQGKILPTPETVPFRLTRDIVDGMGITGVEGVFRRCCEKTMEVMRNSQETLLTIVEVLLYDPLFDWTMNPLKALYLQQRPEDETELHPTLNADDQECKRNLSDIDQSFDKVAERVLMRLQEKLKGVEEGTVLSVGGQVNLLIQQAIDPKNLSRLFPGWKAWV
notes: Expressed in S. cerevisiae from pYES2; also called soluble ATM fragment; truncated recombinant ATM; not shown: N-terminal 6×-His and FLAG tags
On to B3, for which the binding result in series [2] is “binds”.

(Values after US20030077661A1 (ST JUDE CHILDREN S RESEARCH HOSPITAL, published 2003).)
